Reference: PMC6042327 (BMC Biology, 2018)
Substitutions are numbered along the chain they refer to. Names may count otherwise.

Tests used:
[1] = biological target: the molecule itself; assay: native MS; protein 5-10 uM in 0.20-0.75 M ammonium acetate pH 7.0, electrosprayed, source temperature 20 °C; self-association (monomer to dimer)
[2] = biological target: the molecule itself; assay: DEER (EPR) spectroscopy; MTSL spin label on a single cysteine; distances between homologous sites in each monomer; 300-500 uM, D2O buffer with 50% d8-glycerol, flash frozen, measured at 50 K

B1: SGTA C-terminal domain (CT; residues 213-313) (domain or fragment, human, UniProt O43765 213-313, looked up)
chain: TGGVGSFDIAGLLNNPGFMSMASNLMNNPQIQQLMSGMISGGNNPLGTPGTSPSQNDLASLIQAGQQFAQQMQQQNPELIEQLRSQIRSRTPSASNDDQQE
notes: small glutamine-rich tetratricopeptide repeat-containing protein alpha (SGTA), human, residues 213-313 (complete C-terminal domain); also called C-terminal domain of SGTA; not shown: thioredoxin A, N-terminal, cleaved; His6, N-terminal, cleaved
B1 was tested, and the “stoichiometry N” value [1] was 2.

B2: FL SGTA C153 single-cysteine variant, MTSL spin-labelled (natural protein, human, UniProt O43765 1-313, looked up)
chain: MDNKKRLAYAIIQFLHDQLRHGGLSSDAQESLEVAIQSLETAFGVTVEDSDLALPQTLPEIFEAAATGKEMPQDLRSPARTPPSEEDSAEAERLKTEGNEQMKVENFEAAVHFYGKAIELNPANAVYFSNRAAAYSKLGNYAGAVQDSERAICIDPAYSKAYGRMGLALSSLNKHVEAVAYYKKALELDPDNETYKSNLKIAELKLREAPSPTGGVGSFDIAGLLNNPGFMSMASNLMNNPQIQQLMSGMISGGNNPLGTPGTSPSQNDLASLIQAGQQFAQQMQQQNPELIEQLRSQIRSRTPSASNDDQQE
modifications: MTSL spin label on cysteine 153
notes: SGTA, human, residues 1-313; the other three wild-type cysteines changed to serine, wild-type C153 kept; source: E. coli, prepared in the same way as the wild-type versions, MTSL spin-labelled, size-exclusion chromatography; not shown: thioredoxin A, N-terminal, cleaved; His6, N-terminal, cleaved
B2: binds [2].

B3: FL SGTA S197C single-cysteine mutant, MTSL spin-labelled (natural protein, human, UniProt O43765 1-313, looked up)
chain: B2 chain with C153S, S197C
modifications: MTSL spin label on cysteine 197
notes: SGTA, human, residues 1-313; all four wild-type cysteines changed to serine, then S197C; source: E. coli, prepared in the same way as the wild-type versions, MTSL spin-labelled, size-exclusion chromatography; not shown: thioredoxin A, N-terminal, cleaved; His6, N-terminal, cleaved
B3: binds [2].

B4: SGTA NT-TPR S88C single-cysteine mutant, MTSL spin-labelled (domain or fragment, human, UniProt O43765 1-213, looked up)
chain: MDNKKRLAYAIIQFLHDQLRHGGLSSDAQESLEVAIQSLETAFGVTVEDSDLALPQTLPEIFEAAATGKEMPQDLRSPARTPPSEEDCAEAERLKTEGNEQMKVENFEAAVHFYGKAIELNPANAVYFSNRAAAYSKLGNYAGAVQDSERAISIDPAYSKAYGRMGLALSSLNKHVEAVAYYKKALELDPDNETYKSNLKIAELKLREAPSPT
modifications: MTSL spin label on cysteine 88
notes: SGTA, human, residues 1-213; all four wild-type cysteines changed to serine, then S88C; also called C-terminal deletion mutant S88C; source: E. coli, prepared in the same way as the wild-type versions, MTSL spin-labelled, size-exclusion chromatography; not shown: thioredoxin A, N-terminal, cleaved; His6, N-terminal, cleaved
B4: binds [2].

B5: SGTA NT-TPR S136C single-cysteine mutant, MTSL spin-labelled (domain or fragment, human, UniProt O43765 1-213, looked up)
chain: B4 chain with C88S, S136C
modifications: MTSL spin label on cysteine 136
notes: SGTA, human, residues 1-213; all four wild-type cysteines changed to serine, then S136C; also called C-terminal deletion mutant S136C; source: E. coli, prepared in the same way as the wild-type versions, MTSL spin-labelled, size-exclusion chromatography; not shown: thioredoxin A, N-terminal, cleaved; His6, N-terminal, cleaved
B5: binds [2].

B6: SGTA NT-TPR C153 single-cysteine variant, MTSL spin-labelled (domain or fragment, human, UniProt O43765 1-213, looked up)
chain: B4 chain with C88S, S153C
modifications: MTSL spin label on cysteine 153
notes: SGTA, human, residues 1-213; the other three wild-type cysteines changed to serine, wild-type C153 kept; also called C-terminal deletion mutant C153; source: E. coli, prepared in the same way as the wild-type versions, MTSL spin-labelled, size-exclusion chromatography; not shown: thioredoxin A, N-terminal, cleaved; His6, N-terminal, cleaved
B6: binds [2].

B7: SGTA NT-TPR S197C single-cysteine mutant, MTSL spin-labelled (domain or fragment, human, UniProt O43765 1-213, looked up)
chain: B4 chain with C88S, S197C
modifications: MTSL spin label on cysteine 197
notes: SGTA, human, residues 1-213; all four wild-type cysteines changed to serine, then S197C; also called C-terminal deletion mutant S197C; source: E. coli, prepared in the same way as the wild-type versions, MTSL spin-labelled, size-exclusion chromatography; not shown: thioredoxin A, N-terminal, cleaved; His6, N-terminal, cleaved
B7: binds [2].

B8: SGTA NT-TPR (1-213) (domain or fragment, human, UniProt O43765 1-213, looked up)
chain: B4 chain with S38C, C88S, S129C, S148C, S153C
notes: SGTA, human, residues 1-213 (N-terminal dimerisation domain and TPR domain); also called version lacking the C-terminal domain; not shown: thioredoxin A, N-terminal, cleaved; His6, N-terminal, cleaved
With B8 the “stoichiometry N” value [1] was 2.

B9: FL SGTA S88C single-cysteine mutant, MTSL spin-labelled (natural protein, human, UniProt O43765 1-313, looked up)
chain: B2 chain with S88C, C153S
modifications: MTSL spin label on cysteine 88
notes: SGTA, human, residues 1-313; all four wild-type cysteines changed to serine, then S88C; source: E. coli, prepared in the same way as the wild-type versions, MTSL spin-labelled, size-exclusion chromatography; not shown: thioredoxin A, N-terminal, cleaved; His6, N-terminal, cleaved
B9: binds [2].

B10: FL SGTA S136C single-cysteine mutant, MTSL spin-labelled (natural protein, human, UniProt O43765 1-313, looked up)
chain: B2 chain with S136C, C153S
modifications: MTSL spin label on cysteine 136
notes: SGTA, human, residues 1-313; all four wild-type cysteines changed to serine, then S136C; source: E. coli, prepared in the same way as the wild-type versions, MTSL spin-labelled, size-exclusion chromatography; not shown: thioredoxin A, N-terminal, cleaved; His6, N-terminal, cleaved
B10: binds [2].
